In patent publication US20160138027A1 (Stanford University, published 2016):

Assays:
[1] = biological target: T1, LRS (human, UniProt Q9P2J5 1-1176); assay: FLAG co-immunoprecipitation from HEK293T lysates, western blot
T1 construct: Endogenous protein probed in the co-immunoprecipitate; also called Leucyl tRNA synthetase

[2] = biological target: T2, Rictor (human, UniProt Q6R327 1-1708); assay: FLAG co-immunoprecipitation from cross-linked HEK293T lysates, western blot (FIG. 6C)
T2 construct: Endogenous protein probed in the co-immunoprecipitate
Experimental: (§1) HEK293T cells were transfected with either MORTOR-3×FLAG or FLAG alone for 22 or 42 hours later. Cells were then starved of amino acids and serum for 4 hours and re-stimulated with amino acids for 5 minutes or left untreated. Cells were cross-linked and harvested and FLAG immunoprecipitation was used to test for interactions with endogenous proteins. […] HEK293T cells were transfected with either MORTOR-3×FLAG, MORTOR-1×FLAG (CMV), or FLAG only and treated as in FIG. 6A.
(§2) One day before transfection, 2,000,000 HEK293T cells were plated in 10 cm culture dishes. The cells were transfected with 2 μg of cDNA expression vectors using Lipofectamine 2000 (Life Technologies). Four hours after transfection, the cells were washed and incubated in DMEM with 10% FBS without antibiotics for 18 hours. When amino acid sensitivity was investigated, cells were transfected for 18 or 38 hours followed by 4 hours of amino acid starvation. The cells were then stimulated with amino acid for 7 minutes. The cells were incubated in Triton X-100 lysis buffer (1% Triton X-100, 40 mM HEPES pH 7.4, 2 mM EDTA, 200 mM NaCl, phosSTOP and protease inhibitor cocktail (Roche)) for 1 hour, followed by sonication at 4° C. For in-cell crosslinking experiments, DSP was used as previously described (Sancak, Y., et al. (2008) “The Rag GTPases Bind Raptor and Mediate Amino Acid Signaling to MTORC1,” Science, 320:1496-1501) prior to cell lysis. The lysates were centrifuged at 20,000×g for 30 minutes. For immunoprecipitation, primary antibodies were cross-linked to Protein G beads (Life technologies) using DMP (Thermo scientific). For anti-FLAG-immunoprecipitation, the FLAG-M2 affinity gel (Life technologies) was used. The cleared lysates were incubated with the beads at 4° C. for 2 hours or overnight. The beads were washed five times with ice-cold lysis buffer. Immunoprecipitated proteins were denatured in the SDS sample buffer and separated by SDS-PAGE. The intensity of bands were quantified using ImageJ (NIH).

[3] = biological target: T3, p62 (human, UniProt Q13501 2-440); assay: as above
T3 construct: Endogenous protein probed with anti-p62 from BD Transduction Laboratories
Experimental: as §1, §2

[4] = biological target: T4, ATP6V1A (human, UniProt P38606 1-617); assay: as above
T4 construct: Endogenous protein probed in the co-immunoprecipitate
Experimental: as §1, §2

Measured: binding result

T2 sequence (Q6R327 whole entry): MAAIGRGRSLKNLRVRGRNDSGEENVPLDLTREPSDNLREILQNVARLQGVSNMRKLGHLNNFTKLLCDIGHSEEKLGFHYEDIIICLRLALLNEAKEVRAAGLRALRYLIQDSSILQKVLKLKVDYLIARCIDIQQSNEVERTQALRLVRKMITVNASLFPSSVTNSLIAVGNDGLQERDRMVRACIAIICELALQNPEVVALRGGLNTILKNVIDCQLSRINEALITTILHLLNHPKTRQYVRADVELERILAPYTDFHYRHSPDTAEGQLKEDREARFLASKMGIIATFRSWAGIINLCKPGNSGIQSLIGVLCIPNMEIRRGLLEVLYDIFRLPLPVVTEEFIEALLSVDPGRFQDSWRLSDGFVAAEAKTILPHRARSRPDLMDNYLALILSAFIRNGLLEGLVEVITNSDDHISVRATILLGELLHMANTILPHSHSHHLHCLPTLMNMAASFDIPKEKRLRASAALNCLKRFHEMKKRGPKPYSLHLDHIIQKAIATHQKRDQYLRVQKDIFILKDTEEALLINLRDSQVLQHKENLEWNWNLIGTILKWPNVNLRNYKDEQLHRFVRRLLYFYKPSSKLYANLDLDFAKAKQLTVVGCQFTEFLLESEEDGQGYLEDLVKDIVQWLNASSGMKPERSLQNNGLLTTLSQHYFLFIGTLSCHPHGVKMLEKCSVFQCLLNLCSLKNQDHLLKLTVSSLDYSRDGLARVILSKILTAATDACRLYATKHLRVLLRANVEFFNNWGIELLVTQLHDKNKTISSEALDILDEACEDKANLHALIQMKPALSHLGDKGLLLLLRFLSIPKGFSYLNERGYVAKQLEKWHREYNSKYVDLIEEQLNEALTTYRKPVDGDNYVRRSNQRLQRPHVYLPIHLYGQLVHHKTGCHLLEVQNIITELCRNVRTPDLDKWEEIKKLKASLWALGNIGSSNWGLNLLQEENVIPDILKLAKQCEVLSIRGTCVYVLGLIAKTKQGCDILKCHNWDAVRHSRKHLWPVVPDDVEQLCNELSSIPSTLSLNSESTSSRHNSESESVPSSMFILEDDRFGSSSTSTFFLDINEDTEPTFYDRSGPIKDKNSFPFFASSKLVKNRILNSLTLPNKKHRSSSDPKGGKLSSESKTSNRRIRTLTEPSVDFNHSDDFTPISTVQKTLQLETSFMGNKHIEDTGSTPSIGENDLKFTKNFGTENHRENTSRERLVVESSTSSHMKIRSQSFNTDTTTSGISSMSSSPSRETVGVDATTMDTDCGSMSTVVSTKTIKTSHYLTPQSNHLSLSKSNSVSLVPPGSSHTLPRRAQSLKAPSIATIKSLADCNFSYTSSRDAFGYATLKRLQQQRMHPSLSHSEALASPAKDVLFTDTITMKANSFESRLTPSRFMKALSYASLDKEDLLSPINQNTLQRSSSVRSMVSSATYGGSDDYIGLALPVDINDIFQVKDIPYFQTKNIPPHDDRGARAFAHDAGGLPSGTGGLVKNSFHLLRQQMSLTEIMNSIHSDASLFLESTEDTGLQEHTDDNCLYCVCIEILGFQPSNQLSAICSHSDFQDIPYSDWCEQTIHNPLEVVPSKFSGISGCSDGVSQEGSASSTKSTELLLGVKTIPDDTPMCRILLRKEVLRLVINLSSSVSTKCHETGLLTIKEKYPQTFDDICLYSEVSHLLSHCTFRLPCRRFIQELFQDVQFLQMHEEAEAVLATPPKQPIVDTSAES
T1 sequence (Q9P2J5 whole entry): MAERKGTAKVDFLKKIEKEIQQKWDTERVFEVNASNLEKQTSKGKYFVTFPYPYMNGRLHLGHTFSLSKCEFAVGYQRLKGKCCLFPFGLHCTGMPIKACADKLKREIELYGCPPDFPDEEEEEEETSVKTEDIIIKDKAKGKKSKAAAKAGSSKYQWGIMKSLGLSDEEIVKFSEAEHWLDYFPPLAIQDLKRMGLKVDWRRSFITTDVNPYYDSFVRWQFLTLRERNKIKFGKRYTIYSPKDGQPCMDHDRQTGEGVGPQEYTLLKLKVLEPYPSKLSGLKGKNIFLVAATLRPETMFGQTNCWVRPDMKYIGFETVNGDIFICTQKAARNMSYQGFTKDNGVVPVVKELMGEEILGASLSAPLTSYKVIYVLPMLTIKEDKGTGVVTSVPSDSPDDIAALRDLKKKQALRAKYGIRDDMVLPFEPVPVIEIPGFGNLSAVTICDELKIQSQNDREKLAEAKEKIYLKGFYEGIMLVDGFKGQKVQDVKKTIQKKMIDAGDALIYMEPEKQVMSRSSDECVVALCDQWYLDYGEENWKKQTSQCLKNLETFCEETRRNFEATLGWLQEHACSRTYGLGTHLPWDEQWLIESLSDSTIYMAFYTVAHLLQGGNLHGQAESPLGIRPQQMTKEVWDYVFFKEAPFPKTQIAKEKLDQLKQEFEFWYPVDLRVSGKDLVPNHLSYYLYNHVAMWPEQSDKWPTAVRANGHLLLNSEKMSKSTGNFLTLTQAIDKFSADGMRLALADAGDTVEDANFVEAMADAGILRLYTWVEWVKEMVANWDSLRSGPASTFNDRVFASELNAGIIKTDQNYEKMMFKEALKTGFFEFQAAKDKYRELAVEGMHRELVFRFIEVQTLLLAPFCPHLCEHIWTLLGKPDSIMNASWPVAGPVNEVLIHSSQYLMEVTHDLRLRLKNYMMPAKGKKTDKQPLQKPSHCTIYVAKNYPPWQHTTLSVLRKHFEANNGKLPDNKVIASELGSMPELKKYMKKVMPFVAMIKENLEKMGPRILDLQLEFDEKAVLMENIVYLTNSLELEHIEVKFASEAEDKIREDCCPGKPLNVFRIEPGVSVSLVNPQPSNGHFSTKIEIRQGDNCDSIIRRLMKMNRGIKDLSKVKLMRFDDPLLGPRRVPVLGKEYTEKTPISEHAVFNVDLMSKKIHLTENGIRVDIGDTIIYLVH
T4 sequence (P38606 whole entry): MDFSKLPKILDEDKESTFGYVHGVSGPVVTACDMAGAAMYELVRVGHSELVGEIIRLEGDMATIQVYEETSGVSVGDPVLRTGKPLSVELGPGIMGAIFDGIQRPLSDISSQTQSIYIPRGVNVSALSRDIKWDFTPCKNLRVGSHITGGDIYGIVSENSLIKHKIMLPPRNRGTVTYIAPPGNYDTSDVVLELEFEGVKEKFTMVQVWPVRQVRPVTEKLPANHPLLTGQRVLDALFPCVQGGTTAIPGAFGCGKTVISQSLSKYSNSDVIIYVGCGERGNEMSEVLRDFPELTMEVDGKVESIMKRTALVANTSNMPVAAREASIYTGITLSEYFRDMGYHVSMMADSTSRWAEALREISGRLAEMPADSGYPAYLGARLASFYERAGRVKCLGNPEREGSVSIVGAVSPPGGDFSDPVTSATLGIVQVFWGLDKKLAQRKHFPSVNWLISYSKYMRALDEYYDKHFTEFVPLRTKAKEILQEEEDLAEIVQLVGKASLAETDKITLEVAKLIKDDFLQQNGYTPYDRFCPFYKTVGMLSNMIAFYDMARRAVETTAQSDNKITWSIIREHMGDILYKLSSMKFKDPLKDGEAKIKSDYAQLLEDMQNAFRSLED

B1: MORTOR-3×FLAG (receptor)
chain: MRPERPRPRGSAPGPMETPPWDPARNDSLPPTLTPAVPPYVKLGLTVVYTVFYALLFVFIYVQLWLVLRYRHKRLSYQSVFLFLCLFWASLRTVLFSFYFKDFVAANSLSPFVFWLLYCFPVCLQFFTLTLMNLYFTQVIFKAKSKYSPELLKYRLPLYLASLFISLVFLLVNLTCAVLVKTGNWERKVIVSVRVAINDTLFVLCAVSLSICLYKISKMSLANIYLESKGSSVCQVTAIGVTVILLYTSRACYNLFILSFSQNKSVHSFDYDWYNVSDQADLKNQLGDAGYVLFGVVLFVWELLPTTLVVYFFRVRNPTKDLTNPGMVPSHGFSPRSYFFDNPRRYDSDDDLAWNIAPQGLQGGFAPDYYDWGQQTNSFLAQAGTLQDSTLDPDKPSLG
notes: Expressed from pBMN-GPR137b-3×FLAG in HEK293T or HeLa cells and immunoprecipitated from lysates on FLAG-M2 gel; also called GPR137b-3×FLAG; MORTOR-FLAG; not shown: 3×FLAG tag
no binding: [1] | [2] | [3] | [4]
